Test [1] concerns the target human Kv1.1 (human) (UniProt Q09470).
Test [2] deals with human Kv1.3 (human) (UniProt P22001).
The target is the same in test [3]. The test is described as follows: cell-based or functional assay.
Test [4] deals with human Kv1.1 (human) (UniProt Q09470). As to the kind of experiment: cell-based or functional assay.
Sequence of human Kv1.1 (human) (Q09470 whole entry): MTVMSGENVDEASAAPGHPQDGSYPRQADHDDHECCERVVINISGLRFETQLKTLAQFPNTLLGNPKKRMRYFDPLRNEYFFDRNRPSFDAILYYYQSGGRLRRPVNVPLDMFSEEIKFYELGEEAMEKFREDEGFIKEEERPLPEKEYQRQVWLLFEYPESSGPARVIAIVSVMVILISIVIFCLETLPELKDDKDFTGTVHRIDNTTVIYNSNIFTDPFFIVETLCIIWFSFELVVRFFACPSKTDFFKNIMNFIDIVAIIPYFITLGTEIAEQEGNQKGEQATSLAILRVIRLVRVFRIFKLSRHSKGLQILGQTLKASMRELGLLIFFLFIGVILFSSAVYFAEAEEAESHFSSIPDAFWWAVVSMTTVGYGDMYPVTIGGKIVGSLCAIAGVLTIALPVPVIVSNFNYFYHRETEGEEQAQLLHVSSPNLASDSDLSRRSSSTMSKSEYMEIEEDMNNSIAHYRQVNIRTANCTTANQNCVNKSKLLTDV

Sequence of human Kv1.3 (human) (P22001 whole entry): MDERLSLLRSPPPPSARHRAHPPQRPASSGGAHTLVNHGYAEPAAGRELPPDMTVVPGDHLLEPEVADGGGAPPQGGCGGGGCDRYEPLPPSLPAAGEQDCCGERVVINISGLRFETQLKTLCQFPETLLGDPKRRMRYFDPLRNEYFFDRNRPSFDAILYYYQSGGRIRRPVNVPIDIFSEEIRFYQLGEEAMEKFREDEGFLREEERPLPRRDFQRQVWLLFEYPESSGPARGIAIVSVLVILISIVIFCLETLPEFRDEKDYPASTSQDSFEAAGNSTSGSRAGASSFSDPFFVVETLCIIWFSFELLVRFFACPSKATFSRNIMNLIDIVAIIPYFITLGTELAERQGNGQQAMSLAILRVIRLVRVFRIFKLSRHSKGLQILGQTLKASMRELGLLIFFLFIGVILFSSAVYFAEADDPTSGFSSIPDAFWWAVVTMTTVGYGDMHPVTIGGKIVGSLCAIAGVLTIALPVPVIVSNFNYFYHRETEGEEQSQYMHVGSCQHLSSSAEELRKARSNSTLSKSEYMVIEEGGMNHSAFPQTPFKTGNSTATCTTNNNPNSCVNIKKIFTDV

As to KV1C2 (OdK2-Fc fusion), the thallium flux KV1.1 IC50 with human Kv1.1 (human) [1] is > 1000 nM.
The substance KV1N2 (OsK1-Fc fusion) gave a thallium flux KV1.3 IC50 with human Kv1.3 (human) [2] of 0.03 nM. In the test with human Kv1.1 (human) [1], this substance gave a thallium flux KV1.1 IC50 of 0.1 nM. In the test with human Kv1.3 (human) [3], this substance displayed a Kv1.3 IC50, patch clamp of 0.3 nM. In the test with human Kv1.1 (human) [4], the Kv1.1 IC50, patch clamp turned out to be 2 nM and the Kv1.1 IC50, whole-cell patch clamp came to 2 nM.
As for wild type OsK1 peptide, in the test with human Kv1.3 (human) [3], the CD4+ T cell inhibition IC50 came to 0.03 nM; the CD8+ T cell inhibition IC50 is 0.03 nM; the Kv1.3 IC50, whole-cell patch clamp stood at 0.01 nM. The same substance returned a Kv1.1 IC50, whole-cell patch clamp with human Kv1.1 (human) [4] of 0.21 nM.
With wild type OdK2 peptide, the Kv1.3 IC50, whole-cell patch clamp in the test with human Kv1.3 (human) [3] worked out at 0.1 nM.

The values are drawn from patent publication US20190062383A1.
